As a reminder, the Kd is a measure of binding affinity in units of concentration. The low end stands for a tighter complex, the high end for a looser complex.

Assay [1] deals with T1, human IL-2 (human, UniProt P60568 21-153).
T1 construct: The source is told for the ELISA; nothing else is said for the SPR
Nature of the assay: SPR; […], Biacore 8K+; […]; HBS-EP+; […]. The conditions noted are these: both partners purified. (Surface plasmon resonance follows binding to a sensor surface in real time, without labels.)

Assay [2] concerns the target T1, human IL-2. Nature of the assay: SPR; multicycle kinetics, Biacore 8K+; knob domain constructs immobilised on a CM5 chip via amine coupling, IL-2 in solution; HBS-EP+; two-state binding model, only the fastest association and the slowest dissociation rate constants reported. Conditions: both partners purified.

T1 sequence (P60568 21-153): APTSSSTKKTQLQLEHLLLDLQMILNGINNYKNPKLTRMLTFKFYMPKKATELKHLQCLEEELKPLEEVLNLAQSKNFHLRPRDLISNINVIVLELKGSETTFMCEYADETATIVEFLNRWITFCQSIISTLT

B1: aIL2_1-SNV-N (other)
chain: LKEVQDNIGSSCPESYRFHSDRWSRNCCIPDSWDDSYVWNCDHYAVRPAIGSLKRELADL
notes: also called aIL2_1, SNV-N framework; not shown: His8, C-terminal, kept
With B1, in assay [1], the affinity, expressed as Kd, was 9.4 nM.

B2: aIL2_1-BECN1 (other, bovine (knob domain))
chain: YQREYSEFKRQQLELDDELGSSCPESYRFHSDRWSRNCCIPDSWDDSYVWNCDHYAVRPAIGSLIQELEDVEKNRKIVAENL
notes: also called aIL2_1, BECN1 framework; not shown: His8, C-terminal, kept
The molecule B2 had a Kd in assay [2] of 10.8 nM.

Values taken from article PMC11008599 (Frontiers in Immunology, 2024).
